Publication PMC3278457

Tests used:
[1] = molecular target: spinophilin (GST fusion fragments) 1-300 (UniProt O35274); test: GST pull-down from striatal extract; settings: reference: wild-type mice; sites T286
[2] = molecular target: spinophilin (striatal) (UniProt Q6R891); test: co-IP with spinophilin antibody, striatal extract; settings: reference: wild-type mice; sites T286
[3] = molecular target: spinophilin, endogenous in mouse striatal TSF (mouse (endogenous in striatum)) (UniProt Q6R891); test: co-IP; spinophilin immunoprecipitated with 4 µg goat spinophilin antibody from mouse striatal TSFs (WT or T286A-KI; PND21 or adult); immunoblot

UniProt Q6R891, sequence (Q6R891 whole entry): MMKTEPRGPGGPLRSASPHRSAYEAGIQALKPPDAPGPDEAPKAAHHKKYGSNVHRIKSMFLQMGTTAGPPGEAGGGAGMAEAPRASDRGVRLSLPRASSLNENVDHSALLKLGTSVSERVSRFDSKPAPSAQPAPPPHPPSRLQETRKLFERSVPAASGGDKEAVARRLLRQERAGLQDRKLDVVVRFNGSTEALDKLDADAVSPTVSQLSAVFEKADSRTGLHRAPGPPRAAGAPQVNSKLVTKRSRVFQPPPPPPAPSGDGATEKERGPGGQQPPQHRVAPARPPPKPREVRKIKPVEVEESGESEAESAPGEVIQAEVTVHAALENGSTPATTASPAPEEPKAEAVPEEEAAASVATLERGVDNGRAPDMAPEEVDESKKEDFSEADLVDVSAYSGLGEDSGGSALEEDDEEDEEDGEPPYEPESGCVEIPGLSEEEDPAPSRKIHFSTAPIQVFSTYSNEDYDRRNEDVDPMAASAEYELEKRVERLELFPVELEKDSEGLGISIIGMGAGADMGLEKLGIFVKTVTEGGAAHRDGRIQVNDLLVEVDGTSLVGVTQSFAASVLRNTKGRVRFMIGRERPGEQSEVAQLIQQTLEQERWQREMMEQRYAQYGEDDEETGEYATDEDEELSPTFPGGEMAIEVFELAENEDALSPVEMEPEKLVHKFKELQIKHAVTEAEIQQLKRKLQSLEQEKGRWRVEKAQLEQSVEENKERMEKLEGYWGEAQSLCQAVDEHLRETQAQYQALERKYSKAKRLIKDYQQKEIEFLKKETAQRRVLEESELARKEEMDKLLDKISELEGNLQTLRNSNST

| Substance | binding against the reference [1] | other: reduction relative to wild type [2] | reduction of CaMKIIα in spinophilin immune complexes, T286A-KI against WT [3] [%] |
| --- | --- | --- | --- |
| CaMKIIα (from UniProt P11798) T286A knock-in mice | weaker | weaker |  |
| CaMKIIα T286A, endogenous in T286A-KI mouse striatum (from UniProt P11798 1-478) (enzyme) |  |  | 50 |
